According to the DeepSol protein solubility set:

Test: soluble on expression in E. coli; label from the status in PepcDB or PDB records

Row | Sequence | soluble on expression in E. coli
1 | MGSDKIHHHHHHMKRAYAMPLTNPSFPPGPYRFFDREYIIITYRTTREALEAVVPAPLEIDEPLVKYEFIRMPDSTGFGDYTETGQVIPVKYKGQHGGYVHSMYLDDDAPIAGGRELWGFPKKLANPKIVHEGEVIVGTLHYGSVLCATGTMGYKHREADHDSVLASLAAPNFLIKIIPHVDGGPRICELVRYYLTDITLKEAWTAPAALDLRPHVMADVAKLPVLDIISAVHFKADLTLGLGEVVHDYLSDHNRLATSTTQPEKIRA | not soluble
2 | MAHHHHHHMLILKNVEHTILLKIVKRSFSRNVNNNKFVIKPSSLRIRSDKNNFNDIINKYFPNRILKKRKQQDDYSKMNDKNEEKDKKYYLSSKIERRLKMEKVNDQSNISFYNVIPRDKNKNNYLLDSYNNINNDDSTNISDNTNISDNTNISDNTNISDNTNISDNINISDNINISDDINICDKLNICDNTNINLFGYDMTSHQVRVEEKENNLTRNNKKNVLEITKEEHDIQKYKNKLHKKIWILLKRKSNEKEFEHYYNMLEKYPLKDEVSYSILLHGKLLISKRKKDNAENYYDIIKECFKILNEMKVKKIHPTLVRFNEKLVLSYYELIKLNVHPSYKQWMKILRTVWFVSALVKARRQKFILRKMKKIKNKNSVSLDNFNGTFNIHNLESLYVENRDPLIANNVQQGI | soluble
3 | MSSSAAKYDVFQAIADPTRREVIRLLSDKELPISKITDHFPMSRTAVVKHLHILSEANLVSGRKSGREKIYRLHPEPLEELQQWLSYYERFWDNKLSMLKHIVENEE | not soluble
4 | MAHHHHHHMNSPVVKMKAVKNDVEIDNMKQAHILDGLALLQFFHWCEQKRKTKELFNETEMSLRHKVDYFRSTKKNFIFPSFSTISASGPNAAVIHYECTDKTNATIKPAIYLLDSGGQYLHGTTDVTRTTHFGEPTAEEKRIYTLVLKGHLRLRKVIFASYTNSSALDFIARENLFNNFMDYNHGTGHGVGLTLNVHEGGCSIGPVGGAPLKKNMVLSNEPGYYMKDKFGVRIENMQYVISKEITDTTEYLSFDDLTMYPYEKKLLDFSLLTNQEIKELNEYHTTIRNTLLPLVKQSPQEYGESVEKYLIEITEPIAIHNN | not soluble
5 | MGSSHHHHHHSSGLVPRGSHMHMQVTLQVTPPCTQERHYEHLGRCCSRCEPGKYLSSKCTPTSDSVCLPCGPDEYLDTWNEEDKCLLHKVCDAGKALVAVDPGNHTAPRRCACTAGYHWNSDCECCRRNTECAPGFGAQHPLQLNKDTVCTPCLLGFFSDVFSSTDKCKPWTNCTLLGKLEAHQGTTESDVVCSSSMTLRRPPKEAQALEHHHHHH | soluble
6 | SVLEGNPEVGSPRTSDLQHRGNKGSCVLSSPGEDAQPGEEPIKYGELIVLGCCEEGGEETEAQRGEVTGPRAHSCYNGCLASGDKGRRRSRLALSRRSHANGVKPDVMHHISTPLVSKALSNRGQHSISYTLSRSHSVIVEYTHDSDTDMFQIGRSTENMIDFVVTDTSPGGGAAEGPSAQSTISRYACRILCDRRPPYTARIYAAGFDASSNIFLGERAAKWRTPDGLMDGLTTNGVLVMHPAGGFSEDSAPGVWREISVCGNVYTLRDSRSAQQRGKLVGGPLHSPPLSLPGPHKLPIPLPKPGDDLQSFCPREPQQAPYQGIPGPGGS | soluble
7 | MGSDKIHHHHHHMKTERLISYLRPGRWPSVWCPGCGNGIVLKAFLEAVDDLALPKEKVAVVSGIGCSSRATGYLDFNTLHTLHGRAIAFATGVKLAKPDFEVVVMGGDGDILSIGGNHFIHACRRNIDITVVIFNNMIYGMTGGQVSSTTPQYYQTSTTPLGAFEKPFDAVEIALSAGATFVARSTVYHYDHLVRVLKKALQHRGISVVDVLTNCHTYFGRYNGMPEPHQMMEYFKNNTCFLERPEEGKIKIGIFREEEKEDFLTVYRRLTRKEGAME | not soluble
8 | MRAIDLNSDLGESFGAWSMGDDAAMLDIVTSANVACGFHAGDPAGILRTLKAAAAKNVTIGAHVSYPDKVGFGRRNMDVASDELTADVIYQIGSLQGLAKAAGTSVRYVKPHGALYNTIAHDRRQAMAVIEAIRAIDPALVLVALAGSTLIELARSEGLQCIAEAFADRAYTPQGTLVSRREPGAVLHDPELVAQRMLRLVQSGSIEAIDGSLVRIEADSICVHGDSPAAVEMARELRRVLEQASTSLQPFAGKRSLEHHHHHH | not soluble
9 | MAAAPFDPAEVFQVFGMRRVDSASFDEQVVQAPGDDLRCVFLWGQDCYNCGIFKQTALLQRQALLALELSWFEADVYADEALGRRFSLHGVPTFVLYRSGKRLGRVTGWPGLPQFSAAMQRLRDGT | not soluble
10 | MVRTITVASGKGGTGKTTITANLGVALAQLGHDVTIVDADITMANLELILGMEGLPVTLQNVLAGEARIDEAIYVGPGGVKVVPAGVSLEGLRKANPEKLEDVLTQIMESTDILLLDAPAGLERSAVIAIAAAQELLLVVNPEISSITDGLKTKIVAERLGTKVLGVVVNRITTLGIEMAKNEIEAILEAKVIGLIPEDPEVRRAAAYGKPVVLRSPNSPAARAIVELANYIAGGAKKKVPAEVKEKKKEGALAKMLRIFRRR | soluble
11 | MPVLYKPFQSNLEDKKSGKKLFYPHVVRTGNINSAQLSKEIAAYSSLSPGDVKNTLDNLVTVMAQHLQSSESVSVDGLGTFRMVMSARGRGVETADEVSAAQATLTVRFQPTTTKNLDRTTATRSMVTGAKCARYDKLVSAPGDGGSVDDPNDKPGGGSDGGDDGEAPDPTV | not soluble
12 | MANVEAIPGYLTATFPTLPIEIKDYVSAILKENSDEITSLDEVMDAVGEHLQASVENLCEVGAKNACQQLLKLLHGDNLPKAIKQQEATTKRLEQTVDMAAENQNFEALQSIWKVQTRDTPTTVDKKKLAKAEDRAAAKAEARADAPVERKKKKNEPSATASQAPIRDSGARGANSKDIKLESVDISIGTKQLLSCADVTMAFGRRYGLVGRNGIGKTTLLKMISSQQLKIPAGISMLSVEQEVEGDDTLVLDAVLMSDTKRQTLLDREKTLQSRINKDNINDAEKTKWNDELSKLYIEMEALQLDKAPARASSLLYGLGFTPDEQKRPTKEFSGGWRMRVALARALFVKPDLLLLDEPTNMLDMRAVYWLEGHLQGWEGTILTVSHDRKFLNEICTDIVHLHTRRLDHYKGNYDQFEKTMKEKLTQQQREYESQQQLRQHTQEFIDKFRYNAKRAPMVQSRIKMLEKLPVLLPVELESDIHFKFPECEVLSNPVLQLDEVSFRYNEDSPYLFRKLNLGTHANSRICIVGENGAGKTTLLKLLLDDLQPSVGLRNVNRRIRIAYFTQHHVDQLDMETSAIEVLMKNHPGKTQEDYRAALGRFGLAGDMALQSVETLSGGQKSRLAFANLALMQPNYLILDEPTNHLDVETVEALGKALNVFNGGVVLVSHDEQLIELVCKELWVVKDRMVTTLEGGLEEYRKQVYKQLQLTA | not soluble
13 | VPRGSAKGDGVTDDTAALTSALNDTPVGQKINGNGKTYKVTSLPDISRFINTRFVYERIPGQPLYYASEEFVQGELFKITDTPYYNAWPQDKAFVYENVIYAPYMGSDRAGVSRLHVSWVKSGDDGQTWSTPEWLTDLHPDYPTVNYHCMSMGVCRNRLFAMIETRTLAKNALTNCALWDRPMSRSLHLTGGITKAANQRYATIHVPDHGLFVGDFVNFSNSAVTGVSGDMTVATVIDKDNFTVLTPNQQTSDLNNAGKNWHMGTSFHKSPWRKTDLGLIPSVTEVHSFATIDNNGFAMGYHQGDVAPREVGLFYFPDAFNSPSNYVRRQIPSEYEPDASEPCIKYYDGVLYLITRGTRGDRLGSSLHRSRDIGQTWESLRFPHNVHHTTLPFAKVGDDLIMFGSERAENEWEAGAPDDRYKASYPRTFYARLNVNNWNADDIEWVNITDQIYQGGIVNSGVGVGSVVVKDNYIYYMFGGEDHFNPWTYGDNSAKDPFKSDGHPSDLYCYKMKIGPDNRVSRDFRYGAVPNRAVPVFFDTNGVRTVPAPMEFTGDLGLGHVTIRASTSSNIRSEVLMEGEYGFIGKSIPTDNPAGQRIIFCGGEGTSSTTGAQITLYGANNTDSRRIVYNGDEHLFQSADVKPYNDNVTALGGPSNRFTTAYLGSNPIVT | soluble
14 | MFGSSGFGNKSMFGGSNISTSTTTPAANTTQNDDFLVDGAPEDTIQVIKFSPTPQDKPMLACGSWDGTIRVWMFNDANTFEGKAQQNIPAPILDIAWIEDSSKIFIACADKEARLWDLASNQVAVVGTHDGPVKTCHWINGNNYQCLMTGSFDKTLRFWDMKNLPNQTQMAQIQLPERVYAADVLYPMAVVALANKHIKVYNLENGPTEVKDIESQLKFQIRCISIFKDKSNQNPAGFALGSIEGRVAVQYVDVANPKDNFTFKCHRSAELVNGFQEIYAVNDICFHPQHGTLVTIGSDGRYSMWDKDARTKLKTSEPHPMPLTCCDVHSSGAFLVYALGYDWSRGHEGNTQPGSKIVIHKCIEDMKPRPTKK | not soluble
